Experimental data reported in the supplement of paper PMC11908140.

B1: library; numbered along this chain (parent)
chain: MRKPRAAVGSGHRKQAASQEGRQKHAKNNSQAKPSACDGLARQPEEVVLQASVSSYHLFRDVAEVTAFRGSLLSWYDQEKRDLPWRRRAEDEMDLDRRAYAVWVSEVMLQQTQVATVINYYTGWMQKWPTLQDLASASLEEVNQLWAGLGYYSRGRRLQEGARKVVEELGGHMPRTAETLQQLLPGVGRYTAGAIASIAFGQATGVVDGNVARVLCRVRAIGADPSSTLVSQQLWGLAQQLVDPARPGDFNQAAMELGATVCTPQRPLCSQCPVESLCRARQRVEQEQLLASGSLSGSPDVEECAPNTGQCHLCLPPSEPWDQTLGVVNFPRKASRKPPREESSATCVLEQPGALGAQILLVQRPNSGLLAGLWEFPSVTWEPSEQLQRKALLQELQRWAGPLPATHLRHLGEVVHTFSHIKLTYQVYGLALEGQTPVTTVPPGARWLTQEEFHTAAVSTAMKKVFRVYQGQQPGTCMGSKRSQVSSPCSRKKPRMGQQVLDNFFRSHISTDAHSLNSAAQ

Variants of: B1
Experiment: 8OG:A repair function score (normalized; synonymous = 0, nonsense = -1) (normalized log-likelihood score); higher = more repair activity (WT-like)
Details: with 8OG:A DNA repair reporter (GFP) in HEK-293 MUTYH KO cells
How it was run: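 Lentiviral MUTYH cDNA NNN codon-scan libraries in HEK-293 MUTYH knockout cells (10 pg/ml doxycycline) were co-transfected with an 8OG:A GFP repair reporter plus mCherry. At 72 h, viable mCherry+ cells were sorted into GFP+ (repair) and GFP− bins, three replicates per tile, then tile amplicons were sequenced. Per-tile Rosace fitness scores became a normalized repair function score anchored on synonymous and nonsense distributions. Synonymous medians were set to 0 and nonsense to -1; variants under 300 counts per million at the start were removed.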

| Variant | 8OG:A repair function score |
| --- | --- |
| T346V | 0.0305 |
| G475V | -0.0131 |
| G475K | 0.0247 |
| G475D | -0.00652 |
| S483W | -0.033 |
| S483C | 0.025 |
| S483T | -0.0473 |
| P377R | -1.04 |
| V468Q | -0.0492 |
| D322L | -0.0483 |
| R81G | -0.905 |
| G222M | -0.381 |
| K463I | -0.089 |
| K463V | -0.129 |
| M125Q | -0.33 |
| R279D | -0.718 |
| N119Q | -0.00304 |
| L257H | -0.401 |
| G171C | -0.239 |
| A99C | -0.408 |
| Q78E | 0.00685 |
| E452K | -0.211 |
| C314W | -0.679 |
| C314M | -0.46 |

| Variant | 8OG:A repair function score |
| --- | --- |
| Q323N | 0.061 |
| F505V | 0.00446 |
| S71H | -0.0346 |
| S71D | -0.0972 |
| S71N | -0.00566 |
| D300E | -0.0547 |
| D300G | -0.148 |
| A194E | -0.986 |
| P383M | -0.333 |
| R482T | -0.0344 |
| Y100I | -1.67 |
| Y100M | -1.24 |
| L516M | 0.00845 |
| L516H | 0.0157 |
| L369Y | 0.153 |
| E287K | -0.0128 |
| E287W | -0.0668 |
| I195V | -0.0879 |
| I195Y | -0.741 |
| I195F | -1.08 |
| L234P | -1.02 |
| L134W | -0.665 |
| V441Y | -0.0452 |
| E433Y | -0.0863 |

| Variant | 8OG:A repair function score |
| --- | --- |
| S294D | -0.0514 |
| Q126M | 0.0168 |
| H508Y | 0.0034 |
| H508A | -0.00475 |
| G479S | 0.00355 |
| A212H | -0.341 |
| I221N | -0.933 |
| D224Y | -0.939 |
| D224E | -0.936 |
| Q181A | -0.034 |
| C347G | -0.229 |
| L241P | -0.994 |
| T324I | -0.0894 |
| P474N | -0.0807 |
| E303D | -0.0577 |
| L83Q | -0.947 |
| L83G | -0.971 |
| Q50D | 0.088 |
| V230G | -0.152 |
| Q271E | -0.00693 |
| A400M | 0.54 |
| V207F | -0.875 |
| S138V | -0.188 |
| V166G | -0.466 |

| Variant | 8OG:A repair function score |
| --- | --- |
| G188V | -1.04 |
| E90V | 0.0003 |
| E178W | -0.0455 |
| N307T | -0.07 |
| N307D | 0.0758 |
| Q282K | 0.0141 |
| Q282G | -0.0596 |
| Q282H | -0.0165 |
| C477F | -0.0432 |
| R60D | -0.0771 |
| Y121P | -1.26 |
| L448C | -0.0248 |
| L448V | -0.117 |
| V165A | -0.341 |
| L295T | -0.00105 |
| P352T | 0.0253 |
| V142T | -0.532 |
| S487N | 0.0119 |
| C278P | -1.2 |
| G434V | -0.0502 |
| A334W | -0.28 |
| A291R | -0.0282 |
| N517G | 0.0215 |
| Q239D | 0.103 |

| Variant | 8OG:A repair function score |
| --- | --- |
| P306E | -0.0828 |
| R217Y | -1.01 |
| L355E | 0.0516 |
| Q386D | -0.076 |
| Q386S | -0.0961 |
| T263F | -0.0981 |
| T263G | -0.115 |
| E342L | 0.0472 |
| Y425S | -0.31 |
| L58M | -0.0211 |
| Q499F | -0.00963 |
| L392R | -1.02 |
| F250G | -0.867 |
| S459E | -1.11 |
| T112M | -1.06 |
| E413D | -0.00314 |
| E413N | -0.0589 |
| R88C | -0.0122 |
| A137I | -0.286 |
| C272Q | -1.09 |
| C272R | -1.35 |
| C272T | -1.24 |
| C216T | -0.335 |
| A135C | -0.244 |

| Variant | 8OG:A repair function score |
| --- | --- |
| A177T | -0.226 |
| A177L | -0.213 |
| S335I | -0.000462 |
| S343E | -0.015 |
| S343Y | 0.129 |
| S343C | 0.00733 |
| Q252R | -1.01 |
| E395L | -0.23 |
| E395P | -0.546 |
| E395S | 0.0493 |
| E395M | -0.253 |
| S367C | -0.0437 |
| F466T | -0.725 |
| F466L | -0.0617 |
| F466K | -0.729 |
| L229D | -0.158 |
| A196C | -0.233 |
| Y152G | -0.713 |
| A220K | -0.891 |
| C311T | -0.566 |
| Q358S | -0.152 |
| Q358P | 0.069 |
| E140N | -0.0981 |
| G326Y | -0.435 |

| Variant | 8OG:A repair function score |
| --- | --- |
| T176I | -0.31 |
| A405I | 0.0761 |
| Q498S | 0.0168 |
| D133P | -0.372 |
| A51Q | 0.214 |
| W103M | -0.283 |
| S74H | 0.00229 |
| Q110F | -1.24 |
| F376N | -1.17 |
| F376I | -0.775 |
| L430W | 0.0653 |
| L430N | -0.276 |
| V102R | -1.41 |
| V102E | -1.11 |
| T417P | -0.506 |
| T417W | -0.253 |
| E79D | -0.145 |
| A280H | -0.731 |
| L349Q | -1.83 |
| T455Q | 0.174 |
| L183P | -0.826 |
| T436G | -0.0926 |
| T436K | -0.201 |
